Experimental data reported in article PMC7946651, “The Recombinant Luciferase of the Fungus Neonothopanus nambi: Obtaining and Properties” (Doklady. Biochemistry and Biophysics, 2021).

Substrate: O=c1oc(/C=C/c2ccc(O)c(O)c2)cc(O)c1O
Assay: bioluminescence, initial light intensity, Michaelis-Menten fit
Format: biochemical, Neonothopanus nambi
Settings: 50 nM enzyme, 200 mM Na-phosphate pH 8.0, 500 mM Na2SO4, 0.1% DDM, room temperature, luciferin 2 nM to 50 μM

B1: recombinant N. nambi luciferase (nnLuz) (Neonothopanus nambi) (protein)
chain: MRINISLSSLFERLSKLSSRSIAITCGVVLASAIAFPIIRRDYQTFLEVGPSYAPQNFRGYIIVCVLSLFRQEQKGLAIYDRLPEKRRWLADLPFREGTRPSITSHIIQRQRTQLVDQEFATRELIDKVIPRVQARHTDKTFLSTSKFEFHAKAIFLLPSIPINDPLNIPSHDTVRRTKREIAHMHDYHDCTLHLALAAQDGKEVLKKGWGQRHPLAGPGVPGPPTEWTFLYAPRNEEEARVVEMIVEASIGYMTNDPAGKIVENAK
notes: expressed in Pichia pastoris GS115; membrane protein solubilized and purified in DDM
  Km: 1.09 ± 0.06 µM
